# Data taken from US20160237119A1 (UNIVERSITY OF TOKYO, published 2016).
# Bridges are numbered along the chain shown (N, C = ends). Roman numbers before positions name the chains, in order. Primed or numbered codes have the meaning given here. Where no end group is shown, it is not given here. [ ]: non-standard residue; d: D form. NMeW = CN[C@@H](Cc1c[nH]c2ccccc12)C(=O)O; NMeR = CN[C@@H](CCCNC(=N)N)C(=O)O; NMeF = CN[C@@H](Cc1ccccc1)C(=O)O; NMeT = CN[C@H](C(=O)O)[C@@H](C)O; NMeE = CN[C@@H](CCC(=O)O)C(=O)O; NMeQ = CN[C@@H](CCC(N)=O)C(=O)O; NMeD = CN[C@@H](CC(=O)O)C(=O)O; NMeN = CN[C@@H](CC(N)=O)C(=O)O; NMeV = CN[C@H](C(=O)O)C(C)C; NMeC = CN[C@@H](CS)C(=O)O; BMH′ = not defined here
# B1: D4-3NMe (peptide)
# peptide: {CH2CO}-YRQFN[NMeR]RTHEVWNLD[NMeC]G
# modifications: thioether N-16
# notes: also called NMe (N6 + N16); N-methylated D4-3
# B2: N16, N-methylated D4-3 peptide (peptide)
# peptide: {CH2CO}-YRQFNRRTHEVWNLD[NMeC]G
# modifications: thioether N-16 (inferred)
# B3: D4-3-N6 (peptide)
# peptide: {CH2CO}-YRQFN[NMeR]RTHEVWNLDCG
# modifications: thioether N-16
# B4: D4-3 (peptide)
# peptide: {CH2CO}-YRQFNRRTHEVWNLDCG
# modifications: thioether N-16; not fully specified
# notes: also called D4-3 peptide; D4-3 Monomer
# B5: N12, N-methylated D4-3 peptide (peptide)
# peptide: {CH2CO}-YRQFNRRTHEV[NMeW]NLDCG
# modifications: thioether N-16
# B6: N13, N-methylated D4-3 peptide (peptide)
# peptide: {CH2CO}-YRQFNRRTHEVW[NMeN]LDCG
# modifications: thioether N-16
# B7: D4-3-N8 (peptide)
# peptide: {CH2CO}-YRQFNRR[NMeT]HEVWNLDCG
# modifications: thioether N-16
# B8: N14, N-methylated D4-3 peptide (peptide)
# peptide: {CH2CO}-YRQFNRRTHEVWNLDCG
# modifications: thioether N-16; not fully specified (residues 1, 14); also: one N-methylated residue, position given only by label N14
# B9: N10, N-methylated D4-3 peptide (peptide)
# peptide: {CH2CO}-YRQFNRRTH[NMeE]VWNLDCG
# modifications: thioether N-16
# B10: N4, N-methylated D4-3 peptide (peptide)
# peptide: {CH2CO}-YRQ[NMeF]NRRTHEVWNLDCG
# modifications: thioether N-16 (inferred)
# B11: D4-3-N7 (peptide)
# peptide: {CH2CO}-YRQFNR[NMeR]THEVWNLDCG
# modifications: thioether N-16
# B12: N3, N-methylated D4-3 peptide (peptide)
# peptide: {CH2CO}-YR[NMeQ]FNRRTHEVWNLDCG
# modifications: thioether N-16 (inferred)
# B13: N11, N-methylated D4-3 peptide (peptide)
# peptide: {CH2CO}-YRQFNRRTHE[NMeV]WNLDCG
# modifications: thioether N-16
# B14: N5, N-methylated D4-3 peptide (peptide)
# peptide: {CH2CO}-YRQF[NMeN]RRTHEVWNLDCG
# modifications: thioether N-16 (inferred)
# B15: N2, N-methylated D4-3 peptide (peptide)
# peptide: {CH2CO}-Y[NMeR]QFNRRTHEVWNLDCG
# modifications: thioether N-16 (inferred)
# B16: N15, N-methylated D4-3 peptide (peptide)
# peptide: {CH2CO}-YRQFNRRTHEVWNL[NMeD]CG
# modifications: thioether N-16 (inferred)
# B17: D5-4 (peptide)
# peptide: {CH2CO}-[dY]WYYAWDQTYKAFPCG
# modifications: thioether N-15
# notes: also called D5-4 peptide; D5-4 Monomer
# B18: L5-2 (peptide)
# peptide: {CH2CO}-YISWNEFNSPNWRFITCG
# modifications: thioether N-17
# notes: also called L5-2 peptide; L5-2 Monomer
# B19: D4-3scr (peptide)
# peptide: {CH2CO}-YERVNHLFRNQTWDRCG
# modifications: thioether N-16
# notes: Negative control; also called negative control peptide
# B20: D4-3 dimeric peptide, linker Bis-MAL-PEG3 (peptide)
# peptide: {CH2CO}-YRQFNRRTHEVWNLDCGC(Bis‑MAL‑PEG3)
# modifications: thioether N-16; not fully specified (residue 1); also: dimer: two copies joined by Bis-MAL-PEG3 at Cys18
# notes: Two macrocyclic peptides joined through their C-terminal Cys by Bis-MAL-PEG3; also called D4-3 Bis-MAL-PEG3
# B21: D4-3 dimeric peptide, linker Bis-MAL-PEG11 (peptide)
# peptide: {CH2CO}-YRQFNRRTHEVWNLDCGC(Bis‑MAL‑PEG11)
# modifications: thioether N-16; not fully specified (residue 1); also: dimer: two copies joined by Bis-MAL-PEG11 at Cys18
# notes: Two macrocyclic peptides joined through their C-terminal Cys by Bis-MAL-PEG11; also called D4-3 Bis-MAL-PEG11
# B22: D4-3scr dimeric peptide, linker BMH (peptide)
# peptide: {CH2CO}-YERVNHLFRNQTWDRCGC(BMH′)
# modifications: thioether N-16; also: dimer: two copies joined by BMH at Cys18
# notes: Negative control dimer; also called D4-3scr BMH
# B23: D5-4 dimeric peptide, linker Bis-MAL-PEG3 (peptide)
# peptide 1: [dY]WYYAWDQTYKAFPCG
# peptide 2: [dY]WYYAWDQTYKAFPCG
# modifications: thioether I:N-I:15, II:N-II:15 via Ac; not fully specified (N-terminus, bridges); also: dimer: two copies joined by Bis-MAL-PEG3 through an added C-terminal Cys (handle not in letters)
# notes: Two macrocyclic peptides joined through their C-terminal Cys by Bis-MAL-PEG3; also called D5-4 Bis-MAL-PEG3; not shown: C-terminal handle of each copy (spacer residue plus Cys)
# B24: D5-4 dimeric peptide, linker Bis-MAL-PEG11 (peptide)
# peptide 1: [dY]WYYAWDQTYKAFPCG
# peptide 2: [dY]WYYAWDQTYKAFPCG
# modifications: thioether I:N-I:15, II:N-II:15 via Ac; not fully specified (N-terminus, bridges); also: dimer: two copies joined by Bis-MAL-PEG11 through an added C-terminal Cys (handle not in letters)
# notes: Two macrocyclic peptides joined through their C-terminal Cys by Bis-MAL-PEG11; also called D5-4 Bis-MAL-PEG11; not shown: C-terminal handle of each copy (spacer residue plus Cys)
# B25: D4-3NMe dimeric peptide, linker Bis-MAL-PEG11 (peptide)
# peptide: {CH2CO}-YRQFN[NMeR]RTHEVWNLD[NMeC]GC(Bis‑MAL‑PEG11)
# modifications: thioether N-16; also: dimer via Bis-MAL-PEG11
# notes: also called D4-3NMe Bis-MAL-PEG11; dimerized N-methylated D4-3 peptide
# B26: D5-4 dimeric peptide, linker BMH (peptide)
# peptide 1: [dY]WYYAWDQTYKAFPCG
# peptide 2: [dY]WYYAWDQTYKAFPCG
# modifications: thioether I:N-I:15, II:N-II:15 via Ac; not fully specified (N-terminus, bridges); also: dimer: two copies joined by BMH through an added C-terminal Cys (handle not in letters)
# notes: Two macrocyclic peptides joined through their C-terminal Cys by BMH; also called D5-4 BMH; not shown: C-terminal handle of each copy (spacer residue plus Cys)
# B27: D4-3 dimeric peptide, linker BMH (peptide)
# peptide: {CH2CO}-YRQFNRRTHEVWNLDCGC(BMH′)
# modifications: thioether N-16; not fully specified (residue 1); also: dimer: two copies joined by BMH at Cys18
# notes: Two macrocyclic peptides joined through their C-terminal Cys by BMH; also called D4-3 BMH
# Biological target: T1, c-Met-Fc chimera protein (UniProt P08581 25-932, limits assumed)
# T1 construct: Captured on the SPR chip by an anti-IgG antibody; not shown: Fc part
# Test: SPR presumed (Biacore as in 9-1; method not given), c-Met-Fc on chip
# T1 sequence (P08581 25-932 limits assumed, change not shown): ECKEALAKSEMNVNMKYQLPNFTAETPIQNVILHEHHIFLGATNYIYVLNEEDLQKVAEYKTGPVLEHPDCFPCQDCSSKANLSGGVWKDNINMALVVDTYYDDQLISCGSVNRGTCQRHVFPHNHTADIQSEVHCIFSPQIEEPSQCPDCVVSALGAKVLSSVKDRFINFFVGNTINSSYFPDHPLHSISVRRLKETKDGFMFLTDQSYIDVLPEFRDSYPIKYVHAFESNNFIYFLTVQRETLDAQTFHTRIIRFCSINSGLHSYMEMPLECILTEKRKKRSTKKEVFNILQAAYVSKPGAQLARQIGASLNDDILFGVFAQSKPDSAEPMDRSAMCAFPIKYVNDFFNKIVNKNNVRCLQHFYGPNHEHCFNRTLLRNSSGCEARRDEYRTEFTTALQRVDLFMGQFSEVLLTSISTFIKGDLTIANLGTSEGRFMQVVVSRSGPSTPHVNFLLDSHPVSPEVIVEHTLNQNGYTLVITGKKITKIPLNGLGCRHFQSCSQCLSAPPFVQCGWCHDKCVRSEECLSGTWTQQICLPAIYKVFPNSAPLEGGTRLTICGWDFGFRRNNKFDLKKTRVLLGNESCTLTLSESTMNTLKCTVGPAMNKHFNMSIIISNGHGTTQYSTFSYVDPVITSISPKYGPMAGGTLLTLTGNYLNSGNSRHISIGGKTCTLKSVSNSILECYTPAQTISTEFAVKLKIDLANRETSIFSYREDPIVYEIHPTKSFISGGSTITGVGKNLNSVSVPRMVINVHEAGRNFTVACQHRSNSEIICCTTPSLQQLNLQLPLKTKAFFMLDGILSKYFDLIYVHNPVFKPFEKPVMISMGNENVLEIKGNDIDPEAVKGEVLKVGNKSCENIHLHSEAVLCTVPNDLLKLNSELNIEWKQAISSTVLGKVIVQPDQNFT
Kd [nM],koff [s⁻¹],kon [M⁻¹ s⁻¹],Binder
5.2,0.0021,390000,B1
10,0.01,980000,B2
34,0.0041,120000,B3
8.5,0.011,1.3e+06,B4

# Biological target: T1, c-Met-Fc chimera protein
# Test: as above
# Remark: another data set of the same source
Kd [nM],koff [s⁻¹],kon [M⁻¹ s⁻¹],Binder
160,0.0086,55000,B5
33,0.0026,78000,B6
220,0.006,27000,B7
290,0.0059,21000,B8
300,0.0075,25000,B9
10,0.01,980000,B2
79,0.0096,120000,B10
130,,,B11
120,0.0031,27000,B12
34,0.0041,120000,B3
350,0.0051,15000,B13
200,0.0039,19000,B14
14,0.01,710000,B15
8.5,0.011,1.3e+06,B4
160,0.046,300000,B16

# Biological target: T1, c-Met-Fc chimera protein
# Test: SPR (Biacore), c-Met-Fc captured by anti-IgG on CM5, single-cycle kinetics
# Method: (§1) As a sensor chip, Sensor Chip CM5 was used and an anti-IgG antibody was immobilized on a measurement lane and a control lane by using Human Antibody Capture Kit.
# (§2) On the measurement lane was immobilized c-Met-Fc, while on the control lane was immobilized Fc protein.
# (§3) As a running buffer, HBS-EP+ buffer containing 0.1% DMSO was used and a dissociation constant of the thioether macrocyclic peptide was calculated at 5 different concentrations by using the single-kinetics method.
Kd [nM],koff [s⁻¹],kon [M⁻¹ s⁻¹],binding result,Binder
5.2,0.0021,390000,,B1
4.6,0.021,4.5e+06,,B17
5.4,0.012,2.3e+06,,B18
,,,no binding,B19
3.4,0.008,2.4e+06,,B4

# Biological target: T1, c-Met-Fc chimera protein
# Test: as above
# Remark: another data set of the same source
# Method: as §1, §2, §3
Kd [nM],koff [s⁻¹],kon [M⁻¹ s⁻¹],binding result,Binder
5.2,0.0021,390000,,B1
0.64,0.0007,1.1e+06,,B20
0.9,0.0011,1.2e+06,,B21
4.6,0.021,4.5e+06,,B17
,,,no binding,B22
5.4,0.012,2.3e+06,,B18
4.7,0.00054,120000,,B23
2.1,0.011,5.3e+06,,B24
0.81,0.0004,490000,,B25
12,0.00055,46000,,B26
3.4,0.008,2.4e+06,,B4
0.45,0.00091,2e+06,,B27
